Source: publication PMC9508819, “Rbp95 binds to 25S rRNA helix H95 and cooperates with the Npa1 complex during early pre-60S particle maturation”

What was measured:
Rbp95 1-85 = molecular target: T1, Rbp95 1-85 (Saccharomyces cerevisiae, UniProt P25617 1-85); test: EMSA; 100- or 500-fold excess; strong shift, slightly more protein needed than full length; EMSA: 25 mM Tris-HCl pH 7.5, 75 mM NaCl, 2.5 mM MgCl2, 3.5% glycerol, 0.025% Tween 20, 0.5 mM DTT, 5 nM Cy5-RNA, 30 min at RT; 4-20% TBE gel; details: protein: recombinant; tags: N-terminal His6; label: 5'-Cy5; hairpin
T1 sequence: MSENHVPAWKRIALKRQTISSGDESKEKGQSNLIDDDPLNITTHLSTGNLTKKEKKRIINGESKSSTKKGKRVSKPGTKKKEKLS

Rbp95 full length [1] = molecular target: T2, Rbp95 full length (Saccharomyces cerevisiae, UniProt P25617 1-290); test: EMSA; 5 nM RNA; shift starts at 1.5-fold excess of Rbp95; EMSA: 25 mM Tris-HCl pH 7.5, 75 mM NaCl, 2.5 mM MgCl2, 3.5% glycerol, 0.025% Tween 20, 0.5 mM DTT, 5 nM Cy5-RNA, 30 min at RT; 4-20% TBE gel; details: protein: recombinant; tags: N-terminal His6; label: 5'-Cy5; hairpin
T2 sequence: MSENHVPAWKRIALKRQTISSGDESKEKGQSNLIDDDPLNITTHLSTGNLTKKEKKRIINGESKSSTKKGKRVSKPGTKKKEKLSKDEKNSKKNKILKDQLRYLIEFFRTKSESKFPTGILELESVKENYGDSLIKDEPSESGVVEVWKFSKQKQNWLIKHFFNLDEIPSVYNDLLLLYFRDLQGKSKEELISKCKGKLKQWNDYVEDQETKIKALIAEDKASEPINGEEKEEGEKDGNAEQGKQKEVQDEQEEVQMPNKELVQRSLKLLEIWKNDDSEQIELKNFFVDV

Rbp95 183-end = molecular target: T3, Rbp95 183-end (Saccharomyces cerevisiae, UniProt P25617 183-290); test: EMSA; 100- or 500-fold excess; not sufficient for binding; EMSA: 25 mM Tris-HCl pH 7.5, 75 mM NaCl, 2.5 mM MgCl2, 3.5% glycerol, 0.025% Tween 20, 0.5 mM DTT, 5 nM Cy5-RNA, 30 min at RT; 4-20% TBE gel; details: protein: recombinant; tags: N-terminal His6; label: 5'-Cy5; hairpin
T3 sequence: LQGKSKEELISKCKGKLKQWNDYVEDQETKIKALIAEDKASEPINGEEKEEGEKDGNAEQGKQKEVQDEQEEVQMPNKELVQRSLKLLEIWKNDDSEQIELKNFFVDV

Rbp95 full length [2] = molecular target: T2, Rbp95 full length; test: competition; 20-100-fold excess over Cy5-H95; reverts shift; EMSA: 25 mM Tris-HCl pH 7.5, 75 mM NaCl, 2.5 mM MgCl2, 3.5% glycerol, 0.025% Tween 20, 0.5 mM DTT, 5 nM Cy5-RNA, 30 min at RT; 4-20% TBE gel; details: protein: recombinant; tags: N-terminal His6; hairpin
Rbp95 full length [3] = molecular target: T2, Rbp95 full length; test: EMSA; 5 nM RNA; shift starts at 1.5-fold excess; similar to H95; EMSA: 25 mM Tris-HCl pH 7.5, 75 mM NaCl, 2.5 mM MgCl2, 3.5% glycerol, 0.025% Tween 20, 0.5 mM DTT, 5 nM Cy5-RNA, 30 min at RT; 4-20% TBE gel; details: protein: recombinant; tags: N-terminal His6; label: 5'-Cy5; hairpin

B1: helix H95 (25S rRNA) (structured_RNA)
RNA: AAAGGGAAUUGAACUUAGUACGAGAGGAACAGUUCAUUUCCC
B1: binds (Rbp95 1-85); binds (Rbp95 full length [1]); no binding (Rbp95 183-end).

B2: helix H95 unlabeled competitor (structured_RNA)
RNA: B1 RNA
B2: binds (Rbp95 full length [2]).

B3: helix H45 (25S rRNA) (structured_RNA)
RNA: AAAGGGCGUCAGGGUUGAUAUGAUGCCCUGACGCCC
B3: binds (Rbp95 full length [3]).
